Protein | amplitude of single turnover DNA unwinding (processivity) [nM]
NS3 helicase (NS3h), wild type, hepatitis C virus (protein) AVDFVPVESMETTMRSPVFTDNSSPPAVPQTFQVAHLHAPTGSGKSTKVPAAYAAQGYKVLVLNPSVAATLGFGAYMSKAHGIDPNIRTGVRTITTGAPITYSTYGKFLADGGCSGGAYDIIICDECHSTDSTTILGIGTVLDQAETAGARLVVLATATPPGSVTVPHPNIEEVALSSTGEIPFYGKAIPIETIKGGRHLIFCHSKKKCDELAAKLSGLGLNAVAYYRGLDVSVIPTSGDVIVVATDALMTGFTGDFDSVIDCNTCVTQTVDFSLDPTFTIETTTVPQDAVSRSQRRGRTGRGRMGIYRFVTPGERPSGMFDSSVLCECYDAGCAWYELTPAETSVRLRAYLNTPGLPVCQDHLEFWESVFTGLTHIDAHFLSQTKQAGDNFPYLVAYQATVCARAQAPPPSWDQMWKCLIRLKPTLHGPTPLLYRLGAVQNEVTTTHPITKYIMACMSADLEVVT | 0.35 ± 0.01
NS3h KDA (D543K/H545D/Q549A mutant NS3 helicase) (protein) AVDFVPVESMETTMRSPVFTDNSSPPAVPQTFQVAHLHAPTGSGKSTKVPAAYAAQGYKVLVLNPSVAATLGFGAYMSKAHGIDPNIRTGVRTITTGAPITYSTYGKFLADGGCSGGAYDIIICDECHSTDSTTILGIGTVLDQAETAGARLVVLATATPPGSVTVPHPNIEEVALSSTGEIPFYGKAIPIETIKGGRHLIFCHSKKKCDELAAKLSGLGLNAVAYYRGLDVSVIPTSGDVIVVATDALMTGFTGDFDSVIDCNTCVTQTVDFSLDPTFTIETTTVPQDAVSRSQRRGRTGRGRMGIYRFVTPGERPSGMFDSSVLCECYDAGCAWYELTPAETSVRLRAYLNTPGLPVCQDHLEFWESVFTGLTHIKADFLSATKQAGDNFPYLVAYQATVCARAQAPPPSWDQMWKCLIRLKPTLHGPTPLLYRLGAVQNEVTTTHPITKYIMACMSADLEVVT | 0.21 ± 0.01

— patent US20060246421
